System: MS2 coat protein
Experiment: apparent KD of MS2 coat protein; designed switch direction (-1 OFF switch, 1 ON switch): -1; higher = weaker reporter binding
How it was run: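 SNAP-549-labelled MS2 coat protein was titrated, doubling from 0.7 or 1.5 nM to 3 µM, over designed RNA switches transcribed on Illumina chips by stalled E. coli RNA polymerase. Runs were done without input, with 200 uM small-molecule ligand, or with an oligonucleotide input. Apparent KD is the per-design median over clusters of curve-fitted normalised fluorescence.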

[1] = input ligand: microRNA oligo, concentration not stated
[2] = Eterna round: R95, input ligand: FMN 200 uM
[3] = Eterna round: R95, input ligand: microRNA oligo, concentration not stated
[4] = Eterna round: R95, input ligand: none

With “ACAAAGGACAUGAGGAUCACCCAUGUGGUGCACAAGUCCAGCAAGGAUAUCCAAGUCCCAUAAACGGAGAAGGUGCAUAAUAAG [Inesxeed] (Eterna round: R96, puzzle: Exclusion NG 3)” the “apparent KD of MS2 coat protein” value (input ligand: FMN 200 uM) was 283 nM, the “apparent KD of MS2 coat protein” value [1] was 86.6 nM and the “apparent KD of MS2 coat protein” value (input ligand: none) was 113 nM.
“ACAAGCUAACUCAUAUCUUACAUGAGGAUCACCCAUGUUUUUUCAAUUUUGUUUGGUCUCCUUUGUGCUCGUCUUAU [JR_STOV1_Sub052] (Eterna round: R97, puzzle: Sensor, turn-off variant 1)” was tested, and the “apparent KD of MS2 coat protein” value (input ligand: FMN 200 uM) was 66 nM and the “apparent KD of MS2 coat protein” value (input ligand: none) was 64.9 nM.
With “ACAAGCUUGUAAUCAUUUAACAUGAGGAUCACCCAUGUAAAUGGAAGAACCAAUUUGAUAUGAUUUACUCGUCUUAU [JR_STOV1_Sub009] (Eterna round: R97, puzzle: Sensor, turn-off variant 1)” the “apparent KD of MS2 coat protein” value (input ligand: FMN 200 uM) was 257 nM and the “apparent KD of MS2 coat protein” value (input ligand: none) was 267 nM.
In the case of “ACAAGCUUUACGAUCCUCUACAUGAGGAUCACCCAUGUGCUCGUAUUGUUUAGUACUAUCACGAAAGUGAUAGUACA [Sensor, turn off variant 1 v.5] (Eterna round: R97, puzzle: Sensor, turn-off variant 1)”, the “apparent KD of MS2 coat protein” value (input ligand: FMN 200 uM) is reported as 467 nM and the “apparent KD of MS2 coat protein” value (input ligand: none) is reported as 1090 nM.
“ACAAGCUUUGUUGUGGGUGACAUGAGGAUCACCCAUGUUUGCCACGUCUUGUGGGCCCGGGCCCGCGGCCCGGGCCC [-42.9, -63.9, A 13%] (Eterna round: R97, puzzle: Sensor, turn-off variant 1)” was tested, and the “apparent KD of MS2 coat protein” value (input ligand: FMN 200 uM) was 50.3 nM and the “apparent KD of MS2 coat protein” value (input ligand: none) was 55.1 nM.
For “ACAAGCUUUUAGAUUCUUAACAUGAGGAUCACCCAUGUGCUCGUCUUAUUGGCCGGCGGGCCGCCGGAAAAGCUUGU (Eterna round: R97, puzzle: Sensor, turn-off variant 1)”, the “apparent KD of MS2 coat protein” value (input ligand: FMN 200 uM) was 283 nM and the “apparent KD of MS2 coat protein” value (input ligand: none) was 408 nM.
In the case of “ACAAGCUUUUUGUUCGUCUUAUAAUAAUAAAUAAAGAUAACAUGAGGAUCACCCAUGUAACAAAGACGGCCUCAUGU [Sesor Array 19 - Jieux - Sensor v3, turn-off variant 2] (puzzle: Sensor v3, turn-off variant 2)”, the “apparent KD of MS2 coat protein” value [2] is reported as 166 nM, the “apparent KD of MS2 coat protein” value [3] is reported as 11.7 nM and the “apparent KD of MS2 coat protein” value [4] is reported as 112 nM.
With “ACAAGCUUUUUGUUCGUCUUAUACACUCCUAAUAAGACAACAUGAGGAUCACCCAUGUAACAAACACGAACUCAUGU [Sesor Array 7 - Jieux - Sensor v3, turn-off variant 2] (puzzle: Sensor v3, turn-off variant 2)” the “apparent KD of MS2 coat protein” value [2] was 174 nM, the “apparent KD of MS2 coat protein” value [3] was 369 nM and the “apparent KD of MS2 coat protein” value [4] was 195 nM.
In the case of “ACACAACAUGAGGAUCACCCAUGUCAGGAUAUGCAGAAGAAGAAGAAGAGAAGAGAGAGCAGAAGGGACAACAC [Ex 1 M3] (puzzle: Exclusion 1)”, the “apparent KD of MS2 coat protein” value [2] is reported as 41.7 nM, the “apparent KD of MS2 coat protein” value [3] is reported as 30 nM and the “apparent KD of MS2 coat protein” value [4] is reported as 33.5 nM.
With “ACACACACAGGAUAUCUUCCGCAUGACAUGAGGAUCACCCAUGUGUGCAUGCCCAAAAGUAGAGAAGGGUGUGUGU [eternacac ex5r4 #2] (Eterna round: R97, puzzle: Exclusion 5)” the “apparent KD of MS2 coat protein” value (input ligand: FMN 200 uM) was 26.2 nM and the “apparent KD of MS2 coat protein” value (input ligand: none) was 29.2 nM.
With “ACACUGCGAGGAUAUACAUGAGGAUCACCCAUGUUUCGGUAGACAAGGUUAAUUUAAGGUAGAAGGCGCGUAUU [JR_Ex3_Sub009] (Eterna round: R97, puzzle: Exclusion 3)” the “apparent KD of MS2 coat protein” value (input ligand: FMN 200 uM) was 173 nM and the “apparent KD of MS2 coat protein” value (input ligand: none) was 40.2 nM.
For “ACAGCGUGAGGAUAUACAUGAGGAUCACCCAUGUAUGGCAGGUUAUCCUGUCGUGAGUGUAGAAGGCACGCUGU [Exclusion 3 - Oddities v.5 ( A small slide from ms2 to fmn)] (puzzle: Exclusion 3)”, the “apparent KD of MS2 coat protein” value [3] was 15.4 nM.
“ACAUAUGACUAGGAUAUCACUAGCGAUAGCUAGUGAGAAGGAGUCACAUGAGGAUCACCCAUGUGCUCCAAUAA [Mod5 Ex6/6-A4 by Brourd] (Eterna round: R97, puzzle: Exclusion 6)” was tested, and the “apparent KD of MS2 coat protein” value (input ligand: FMN 200 uM) was 16.3 nM and the “apparent KD of MS2 coat protein” value (input ligand: none) was 15.1 nM.
“ACAUGACCGCUAGGAUAUAGAUGACAUGAGGAUCACCCAUGUUGUCCCAUGUUGACGAUCACCGACUAGAAGGAGCCACCCAUG [ExNG2 5th] (Eterna round: R96, puzzle: Exclusion NG 2)” was tested, and the “apparent KD of MS2 coat protein” value (input ligand: FMN 200 uM) was 53.4 nM, the “apparent KD of MS2 coat protein” value [1] was 34.6 nM and the “apparent KD of MS2 coat protein” value (input ligand: none) was 52.5 nM.
With “ACAUGAGGAUCACCCAUGUCAGGCGGGUCCUCUCCGGCUGUUGAGGAUAUAGUCCGGUAUCCGCGCUAGAAGGUGAGGGCCGGC [Aenatbe mod 18] (Eterna round: R96, puzzle: Exclusion NG 3)” the “apparent KD of MS2 coat protein” value (input ligand: FMN 200 uM) was 18.1 nM, the “apparent KD of MS2 coat protein” value [1] was 16.4 nM and the “apparent KD of MS2 coat protein” value (input ligand: none) was 20.2 nM.
For “ACAUGAGGAUCACCCAUGUCAGGCGGGUCCUCUCCGGCUGUUGAGGAUAUAGUUCGGUAUCCGCGCUAGAAGGUGAGGGCCGGC [Aenatbe mod 21] (Eterna round: R96, puzzle: Exclusion NG 3)”, the “apparent KD of MS2 coat protein” value (input ligand: FMN 200 uM) was 15.1 nM, the “apparent KD of MS2 coat protein” value [1] was 9.99 nM and the “apparent KD of MS2 coat protein” value (input ligand: none) was 17.1 nM.
For “ACAUGAGGAUCACCCAUGUCCGGCUGGUCCGUCUCGGCUGUCGAGGAUAUAGCUCGGUGUCCGCGCUAGAAGGCGGGAGCCGGC [Aenatbe mod 83] (Eterna round: R96, puzzle: Exclusion NG 3)”, the “apparent KD of MS2 coat protein” value (input ligand: FMN 200 uM) was 91.5 nM, the “apparent KD of MS2 coat protein” value [1] was 64.7 nM and the “apparent KD of MS2 coat protein” value (input ligand: none) was 73.4 nM.
With “ACAUGAGGAUCACCCAUGUCCGGCUGGUCCGUUUCGGCUGUCGAGGAUAUAGUUCGGUGUCCGCGCUAGAAGGCGGGAGCCGGC [Aenatbe mod 62] (Eterna round: R96, puzzle: Exclusion NG 3)” the “apparent KD of MS2 coat protein” value (input ligand: FMN 200 uM) was 210 nM, the “apparent KD of MS2 coat protein” value [1] was 80.9 nM and the “apparent KD of MS2 coat protein” value (input ligand: none) was 112 nM.
In the case of “ACAUGAGGAUCACCCAUGUCCGGCUGGUCUGUCUCGGCUGUCGAGGAUAUAGCUCGGUAUCCGCGCUAGAAGGCGGGAGCCGGU [Aenatbe mod 91] (Eterna round: R96, puzzle: Exclusion NG 3)”, the “apparent KD of MS2 coat protein” value (input ligand: FMN 200 uM) is reported as 76.7 nM, the “apparent KD of MS2 coat protein” value [1] is reported as 29.4 nM and the “apparent KD of MS2 coat protein” value (input ligand: none) is reported as 48.8 nM.
In the case of “ACAUGAGGAUCACCCAUGUCUGGCUGGUCUGCUCCGGUUGUUGAGGAUAUAGUCCGGUGUUCGCGCUAGAAGGUGAGGGCUGGA [Aenatbe mod 40] (Eterna round: R96, puzzle: Exclusion NG 3)”, the “apparent KD of MS2 coat protein” value (input ligand: FMN 200 uM) is reported as 137 nM, the “apparent KD of MS2 coat protein” value [1] is reported as 96.4 nM and the “apparent KD of MS2 coat protein” value (input ligand: none) is reported as 131 nM.
In the case of “ACAUGAGGAUCACCCAUGUCUGGCUGGUCUGUUCCGGCUGUCGAGGAUAUAGUCCGGUGUUCGCGCUAGAAGGUGAGGGCUGGA [Aenatbe mod 44] (Eterna round: R96, puzzle: Exclusion NG 3)”, the “apparent KD of MS2 coat protein” value (input ligand: FMN 200 uM) is reported as 153 nM, the “apparent KD of MS2 coat protein” value [1] is reported as 68.6 nM and the “apparent KD of MS2 coat protein” value (input ligand: none) is reported as 87.4 nM.
With “ACAUGAGGAUCACCCAUGUGAAACCAAUGGCUGACUUUGAGCUAGGAUAUUUGUGCAUAUCAAACAAAGAAGGAGCAUUACUGG [Deportation 98 - Jieux - Exclusion NG 3] (Eterna round: R96, puzzle: Exclusion NG 3)” the “apparent KD of MS2 coat protein” value [1] was 30.2 nM.
For “ACAUGAGGAUCACCCAUGUGACAAUAAUGGCUGAUACAGAGACAGGAUAUAGGUGAAUAUCUAACCUAGAAGGGUCAUGACUGG [Deportation 71 - Jieux - Exclusion NG 3] (Eterna round: R96, puzzle: Exclusion NG 3)”, the “apparent KD of MS2 coat protein” value (input ligand: FMN 200 uM) was 34.8 nM, the “apparent KD of MS2 coat protein” value [1] was 33 nM and the “apparent KD of MS2 coat protein” value (input ligand: none) was 54 nM.

Reference: the supplement of paper PMC9170038
